Assay results from article PMC1666580 (The Journal of Cell Biology, 2006).

Target: T1, bacterially expressed human SDC1 ectodomain (hS1ED) (human, UniProt P18827 23-254)
T1 sequence (looked up): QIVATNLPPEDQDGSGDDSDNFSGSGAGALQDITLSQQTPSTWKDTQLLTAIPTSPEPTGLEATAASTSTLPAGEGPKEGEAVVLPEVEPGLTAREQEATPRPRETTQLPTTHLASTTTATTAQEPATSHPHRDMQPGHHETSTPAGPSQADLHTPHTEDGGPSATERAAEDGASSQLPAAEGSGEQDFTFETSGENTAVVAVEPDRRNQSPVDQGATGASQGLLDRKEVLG
Assay: pull-down

B1: lacritin-intein fusion protein (lacritin coupled to chitin beads via chitin-binding intein) (ligand, human, UniProt Q9GZZ8 20-138, looked up)
chain: EDASSDSTGADPAQEAGTSKPNEEISGPAEPASPPETTTTAQETSAAAVQGTAKVTSSRQELNPLKSIVEKSILLTEQALAKAGKGMHGGVPGGKQFIENGSEFAQKLLKKFSLLKPWA
  binding result: binds
